Experimental data: publication PMC3686867, “Characterization of a Novel Putative S-Adenosylmethionine Decarboxylase-Like Protein from Leishmania donovani” (PLoS ONE, 2013)

Assays:
[1] = biological target: Leishmania donovani putative S-adenosylmethionine decarboxylase-like proenzyme (ADL) (Leishmania donovani); assay: SEC; Superdex 75 10/300; ADL 1 mg/ml; 50 mM Tris-HCl pH 7.0, 50 mM NaCl, 3 mM β-me; 25°C; calibrated with low molecular weight standards; elution at 10.4 ml, ~66 kDa
[2] = biological target: Leishmania donovani putative S-adenosylmethionine decarboxylase-like proenzyme (ADL) (Leishmania donovani); assay: native gel or EMSA; native polyacrylamide gel electrophoresis of purified ADL
[3] = biological target: T1, S-adenosylmethionine decarboxylase-like protein (ADL; putative S-adenosylmethionine decarboxylase-like proenzyme) (Leishmania donovani, UniProt E9BM59); assay: tryptophan fluorescence quenching titration (saturation isotherm); supported by far-UV CD; type: binding
T1 construct: gene LdCL_300037200; 894 bp L. donovani ADL gene in pQE30, 6×His-ADL, ~33 kDa, dimer
T1 sequence (E9BM59 1-297): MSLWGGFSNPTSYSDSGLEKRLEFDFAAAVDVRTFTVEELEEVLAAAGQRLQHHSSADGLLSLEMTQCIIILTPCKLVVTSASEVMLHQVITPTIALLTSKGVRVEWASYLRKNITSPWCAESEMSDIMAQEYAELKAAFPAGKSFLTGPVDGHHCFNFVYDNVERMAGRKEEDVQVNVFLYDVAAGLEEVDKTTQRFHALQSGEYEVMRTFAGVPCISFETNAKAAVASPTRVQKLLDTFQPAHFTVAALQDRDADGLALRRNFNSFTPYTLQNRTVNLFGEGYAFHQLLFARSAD

stoichiometry N [1]	stoichiometry N [2]	Compound	Kd [3] [µM]
2	2	Leishmania donovani putative S-adenosylmethionine decarboxylase-like proenzyme (ADL) (natural protein)	
		C[S+](CC[C@H](N)C(=O)[O-])C[C@H]1O[C@@H](n2cnc3c(N)ncnc32)[C@H](O)[C@@H]1O (stereo partly drawn) [S-adenosylmethionine]	51 ± 5
